Test results reported in patent US20120316071A1.
Several values for one entry are separate records, joined by “and”; a condition that tells them apart may be missing. Identical values can stand only once.

Tests used:
[1] = target: rHuman CD44/Fc Chimera, CF (R&D Systems Cat#3660-CD) (human) (UniProt P16070); experiment: MSD multispot ECL, antigen spotted on plate, Fab at 6 nM (blank spot 191)
[2] = target: rHuman Notch-1/Fc Chimera, CF (R&D Systems Cat#3647-TK) (human) (UniProt P46531); experiment: as above
[3] = target: rHuman ErbB2/Fc Chimera, CF (R&D Systems Cat#1129-ER) (human) (UniProt P04626); experiment: as above
[4] = target: rHuman Erythropoietin R/Fc Chimera, CF (R&D Systems Cat#963-ER) (human) (UniProt P19235); experiment: as above
[5] = target: rHuman IGF-1 sR, CF (R&D Systems Cat#391-GR) (human) (UniProt P08069); experiment: as above
[6] = target: rHuman EGF R/Fc Chimera, CF (R&D Systems Cat#344-ER) (human) (UniProt P00533); experiment: as above
[7] = target: rHuman P-Cadherin/Fc Chimera, CF (R&D Systems Cat#861-PC) (human) (UniProt P22223); experiment: as above
[8] = target: rHuman HGF R/c-MET/Fc Chimera, CF (R&D Systems Cat#358-MT/CF) (human) (UniProt P08581); experiment: as above
[9] = target: rHuman CD44/Fc Chimera, CF (R&D Systems Cat#3660-CD) (human) (UniProt P16070); experiment: MSD multispot ECL, antigen spotted on plate, Fab at 51 nM (blank spot 335)
[10] = target: rHuman Notch-1/Fc Chimera, CF (R&D Systems Cat#3647-TK) (human) (UniProt P46531); experiment: as above
[11] = target: rHuman ErbB2/Fc Chimera, CF (R&D Systems Cat#1129-ER) (human) (UniProt P04626); experiment: as above
[12] = target: rHuman Erythropoietin R/Fc Chimera, CF (R&D Systems Cat#963-ER) (human) (UniProt P19235); experiment: as above
[13] = target: rHuman IGF-1 sR, CF (R&D Systems Cat#391-GR) (human) (UniProt P08069); experiment: as above
[14] = target: rHuman EGF R/Fc Chimera, CF (R&D Systems Cat#344-ER) (human) (UniProt P00533); experiment: as above
[15] = target: rHuman P-Cadherin/Fc Chimera, CF (R&D Systems Cat#861-PC) (human) (UniProt P22223); experiment: as above
[16] = target: rHuman HGF R/c-MET/Fc Chimera, CF (R&D Systems Cat#358-MT/CF) (human) (UniProt P08581); experiment: as above
[17] = target: rHuman CD44/Fc Chimera, CF (R&D Systems Cat#3660-CD) (human) (UniProt P16070); experiment: MSD multispot ECL, antigen spotted on plate, Fab at 17 nM (blank spot 143)
[18] = target: rHuman Notch-1/Fc Chimera, CF (R&D Systems Cat#3647-TK) (human) (UniProt P46531); experiment: as above
[19] = target: rHuman ErbB2/Fc Chimera, CF (R&D Systems Cat#1129-ER) (human) (UniProt P04626); experiment: as above
[20] = target: rHuman Erythropoietin R/Fc Chimera, CF (R&D Systems Cat#963-ER) (human) (UniProt P19235); experiment: as above
[21] = target: rHuman IGF-1 sR, CF (R&D Systems Cat#391-GR) (human) (UniProt P08069); experiment: as above
[22] = target: rHuman EGF R/Fc Chimera, CF (R&D Systems Cat#344-ER) (human) (UniProt P00533); experiment: as above
[23] = target: rHuman P-Cadherin/Fc Chimera, CF (R&D Systems Cat#861-PC) (human) (UniProt P22223); experiment: as above
[24] = target: rHuman HGF R/c-MET/Fc Chimera, CF (R&D Systems Cat#358-MT/CF) (human) (UniProt P08581); experiment: as above
[25] = target: rHuman CD44/Fc Chimera, CF (R&D Systems Cat#3660-CD) (human) (UniProt P16070); experiment: MSD multispot ECL, antigen spotted on plate, Fab at 154 nM (blank spot 447)
[26] = target: rHuman Notch-1/Fc Chimera, CF (R&D Systems Cat#3647-TK) (human) (UniProt P46531); experiment: as above
[27] = target: rHuman ErbB2/Fc Chimera, CF (R&D Systems Cat#1129-ER) (human) (UniProt P04626); experiment: as above
[28] = target: rHuman Erythropoietin R/Fc Chimera, CF (R&D Systems Cat#963-ER) (human) (UniProt P19235); experiment: as above
[29] = target: rHuman IGF-1 sR, CF (R&D Systems Cat#391-GR) (human) (UniProt P08069); experiment: as above
[30] = target: rHuman EGF R/Fc Chimera, CF (R&D Systems Cat#344-ER) (human) (UniProt P00533); experiment: as above
[31] = target: rHuman P-Cadherin/Fc Chimera, CF (R&D Systems Cat#861-PC) (human) (UniProt P22223); experiment: as above
[32] = target: rHuman HGF R/c-MET/Fc Chimera, CF (R&D Systems Cat#358-MT/CF) (human) (UniProt P08581); experiment: as above
[33] = target: rHuman P-Cadherin/Fc Chimera, CF (R&D Systems Cat#861-PC) (human) (UniProt P22223); experiment: MSD ECL multispot assay, antigen spotted on plate, Fab in solution; blank spot of this row 348
[34] = target: rHuman P-Cadherin/Fc Chimera, CF (R&D Systems Cat#861-PC) (human) (UniProt P22223); experiment: MSD ECL multispot assay, antigen spotted on plate, Fab in solution; blank spot of this row 504
[35] = target: Recombinant Human DLL4 (human) (UniProt Q9NR61); experiment: ECL (MSD) multispot binding assay, DLL4 spotted on plate, Fab in solution
[36] = target: Recombinant Human DLL4 (human) (UniProt Q9NR61); experiment: ECL (MSD) multispot binding assay, DLL4 signal over blank spot
[37] = target: Recombinant Human DLL4 (delta-like protein 4) (human) (UniProt Q9NR61); experiment: ECL multispot (MSD) binding assay; antigen spotted on plate, Fab in solution
[38] = target: rHuman P-Cadherin/Fc Chimera, CF (R&D Systems Cat#861-PC) (human) (UniProt P22223); experiment: MSD multispot ECL, antigen spotted, Fab 0.6 nM; blank spot 226
[39] = target: rHuman P-Cadherin/Fc Chimera, CF (R&D Systems Cat#861-PC) (human) (UniProt P22223); experiment: MSD multispot ECL, antigen spotted, Fab 37.2 nM; blank spot 199
[40] = target: rHuman P-Cadherin/Fc Chimera, CF (R&D Systems Cat#861-PC) (human) (UniProt P22223); experiment: MSD multispot ECL, antigen spotted, Fab […]; blank spot 234
[41] = target: rHuman P-Cadherin/Fc Chimera, CF (R&D Systems Cat#861-PC) (human) (UniProt P22223); experiment: MSD multispot ECL, antigen spotted, Fab 595.8 nM; blank spot 285
[42] = target: rHuman P-Cadherin/Fc Chimera, CF (R&D Systems Cat#861-PC) (human) (UniProt P22223); experiment: MSD multispot ECL, antigen spotted, Fab 9.3 nM; blank spot 287
[43] = target: rHuman P-Cadherin/Fc Chimera, CF (R&D Systems Cat#861-PC) (human) (UniProt P22223); experiment: MSD multispot ECL, antigen spotted, Fab 2383 nM; blank spot 344
[44] = target: rHuman P-Cadherin/Fc Chimera, CF (R&D Systems Cat#861-PC) (human) (UniProt P22223); experiment: MSD multispot ECL, antigen spotted, Fab 148.9 nM; blank spot 218
[45] = target: rHuman P-Cadherin/Fc Chimera, CF (R&D Systems Cat#861-PC) (human) (UniProt P22223); experiment: MSD multispot ECL, antigen spotted, Fab 0.1 nM; blank spot 201

Sequence of rHuman HGF R/c-MET/Fc Chimera, CF (R&D Systems Cat#358-MT/CF) (human) (P08581 25-932, change not shown): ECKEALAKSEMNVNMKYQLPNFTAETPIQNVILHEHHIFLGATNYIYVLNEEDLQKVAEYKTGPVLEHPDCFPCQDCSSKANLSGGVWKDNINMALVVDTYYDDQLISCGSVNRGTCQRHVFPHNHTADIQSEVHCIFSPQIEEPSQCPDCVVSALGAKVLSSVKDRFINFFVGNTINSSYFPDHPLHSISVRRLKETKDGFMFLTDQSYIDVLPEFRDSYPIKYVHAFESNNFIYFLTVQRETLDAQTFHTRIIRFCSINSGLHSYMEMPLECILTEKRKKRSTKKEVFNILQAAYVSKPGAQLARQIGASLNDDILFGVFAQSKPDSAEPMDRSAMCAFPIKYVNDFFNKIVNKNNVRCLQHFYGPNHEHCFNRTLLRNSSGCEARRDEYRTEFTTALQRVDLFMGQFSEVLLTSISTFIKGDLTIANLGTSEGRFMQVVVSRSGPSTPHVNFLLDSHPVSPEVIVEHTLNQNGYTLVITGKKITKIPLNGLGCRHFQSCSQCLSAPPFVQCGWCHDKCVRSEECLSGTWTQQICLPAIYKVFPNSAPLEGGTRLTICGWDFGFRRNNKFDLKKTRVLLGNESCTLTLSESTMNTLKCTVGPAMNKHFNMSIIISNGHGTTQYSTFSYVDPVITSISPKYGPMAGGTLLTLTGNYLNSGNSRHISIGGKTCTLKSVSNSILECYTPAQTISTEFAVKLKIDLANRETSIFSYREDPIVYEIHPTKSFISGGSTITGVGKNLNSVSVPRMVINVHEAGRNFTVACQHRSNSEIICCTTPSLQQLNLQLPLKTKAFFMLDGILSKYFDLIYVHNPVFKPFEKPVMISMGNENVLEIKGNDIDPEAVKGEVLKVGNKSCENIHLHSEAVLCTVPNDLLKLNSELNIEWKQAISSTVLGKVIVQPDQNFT
Sequence of rHuman Erythropoietin R/Fc Chimera, CF (R&D Systems Cat#963-ER) (human) (P19235 25-250, change not shown): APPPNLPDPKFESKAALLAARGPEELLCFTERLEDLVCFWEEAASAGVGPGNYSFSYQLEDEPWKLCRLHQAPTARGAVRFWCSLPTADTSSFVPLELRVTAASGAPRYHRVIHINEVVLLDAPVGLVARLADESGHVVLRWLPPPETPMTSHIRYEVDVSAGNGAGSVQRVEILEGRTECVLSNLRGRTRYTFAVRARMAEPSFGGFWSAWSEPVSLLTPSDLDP

Q: Which ECL signal [1] does the source give for “Fab VH5-51_IGHD5-18*01>3_IGHJ4*01 & V3-4_IGLJ1*01” here?
A: Its ECL signal is 547.

Q: And the ECL signal [2]?
A: Its ECL signal is 464.

Q: What about the ECL signal [3] of the same substance?
A: Its ECL signal is 873.

Q: What about the ECL signal [4] of the same substance?
A: Its ECL signal is 548.

Q: And the ECL signal [5]?
A: The ECL signal was 854.

Q: And the ECL signal [6]?
A: The ECL signal was 742.

Q: And the ECL signal [7]?
A: Its ECL signal is 358.

Q: What about the ECL signal [8] of the same substance?
A: The ECL signal was 831.

Q: What about the ECL signal [9] of the same substance?
A: Its ECL signal is 651.

Q: What about the ECL signal [10] of the same substance?
A: Its ECL signal is 685.

Q: What about the ECL signal [11] of the same substance?
A: Its ECL signal is 1250.

Q: What about the ECL signal [12] of the same substance?
A: The ECL signal was 750.

Q: And the ECL signal [13]?
A: The ECL signal was 1050.

Q: And the ECL signal [14]?
A: Its ECL signal is 816.

Q: What about the ECL signal [15] of the same substance?
A: The ECL signal was 854.

Q: What about the ECL signal [16] of the same substance?
A: Its ECL signal is 1040.

Q: And the ECL signal [17]?
A: The ECL signal was 518.

Q: What about the ECL signal [18] of the same substance?
A: Its ECL signal is 558.

Q: What about the ECL signal [19] of the same substance?
A: Its ECL signal is 1030.

Q: And the ECL signal [20]?
A: The ECL signal was 620.

Q: And the ECL signal [21]?
A: Its ECL signal is 872.

Q: And the ECL signal [22]?
A: Its ECL signal is 805.

Q: What about the ECL signal [23] of the same substance?
A: The ECL signal was 542.

Q: What about the ECL signal [24] of the same substance?
A: The ECL signal was 914.

Q: And the ECL signal [25]?
A: Its ECL signal is 960.

Q: What about the ECL signal [26] of the same substance?
A: The ECL signal was 929.

Q: What about the ECL signal [27] of the same substance?
A: Its ECL signal is 1590.

Q: What about the ECL signal [28] of the same substance?
A: The ECL signal was 1200.

Q: And the ECL signal [29]?
A: Its ECL signal is 1400.

Q: What about the ECL signal [30] of the same substance?
A: The ECL signal was 1400.

Q: What about the ECL signal [31] of the same substance?
A: Its ECL signal is 1730.

Q: What about the ECL signal [32] of the same substance?
A: Its ECL signal is 1520.

Q: Which results are given for “Fab VH1-46_IGHD6-6*01_IGHJ1*01 S102A/S103P/S104F/H111F (APFF) & L6_IGKJ1*01 S92C”?
A: ECL signal [33]: 786; ECL signal [34]: 930

Q: What does the source list for “Fab VH1-46_IGHD6-6*01_IGHJ1*01 S102A/S103P/S104F/H111F (APFF) & L6_IGKJ1*01 S92R”?
A: ECL signal [35]: 418; Signal/Blank [36]: 1.7; ECL signal [37]: 418 and 587

Q: Which results are given for “Fab VH1-46_IGHD6-6*01_IGHJ1*01 & L6_IGKJ1*01”?
A: ECL signal [38]: 321 ECL signal; ECL signal [39]: 649 ECL signal; ECL signal [40]: 401 ECL signal; ECL signal [41]: 617 ECL signal; ECL signal [42]: 452 ECL signal; ECL signal [43]: 728 ECL signal; ECL signal [44]: 687 ECL signal; ECL signal [45]: 235 ECL signal
